Numbering of substitutions follows the chain as printed. Blank lines part the entries; values can stand above or below the molecule they belong to.
Assays:
human EphA4 = target: T1, human EphA4 (Homo sapiens, UniProt P54764); experiment: Affinity of humanized antibodies by SPR (Biacore T200); format: binding; details: human EphA4 extracellular region-SEAP-His; for ka / kd: 1:1 binding model; for Kd: KD=kd/ka
T1 construct: made in house; not restated for the human SEAP-His protein
In short: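 Humanized antibodies captured on protein A chip (antibody A via immobilized rat anti-mouse IgG1) at about 30 to 60 RU in HBS-EP; human EphA4 extracellular region-SEAP-His injected single-cycle at 0.6 to 50 nM, 120 s association, 900 s dissociation. KD = kd/ka from 1:1 binding fits.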

[1] = target: T2, human EphA4 (binding to human Ephrin A5) (Homo sapiens, UniProt P54764); experiment: Human EphA4-human ligand binding inhibition ELISA of humanized antibodies (biotinylated Ephrin A5-Fc); details: biotinylated human Ephrin A5-Fc 0.7 nM
T2 construct: made in house; not restated for the human SEAP-His protein
In short: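 Wells coated with anti-alkaline phosphatase antibody captured human EphA4 extracellular region-SEAP-His at 10 nM. Biotinylated human Ephrin A5-Fc (0.7 nM) and serially diluted humanized antibody (0-3000 nM) were added together for 1 h at room temperature. Bound ligand was detected with HRP-streptavidin and TMBZ at A450.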

T1 sequence (P54764 20-547): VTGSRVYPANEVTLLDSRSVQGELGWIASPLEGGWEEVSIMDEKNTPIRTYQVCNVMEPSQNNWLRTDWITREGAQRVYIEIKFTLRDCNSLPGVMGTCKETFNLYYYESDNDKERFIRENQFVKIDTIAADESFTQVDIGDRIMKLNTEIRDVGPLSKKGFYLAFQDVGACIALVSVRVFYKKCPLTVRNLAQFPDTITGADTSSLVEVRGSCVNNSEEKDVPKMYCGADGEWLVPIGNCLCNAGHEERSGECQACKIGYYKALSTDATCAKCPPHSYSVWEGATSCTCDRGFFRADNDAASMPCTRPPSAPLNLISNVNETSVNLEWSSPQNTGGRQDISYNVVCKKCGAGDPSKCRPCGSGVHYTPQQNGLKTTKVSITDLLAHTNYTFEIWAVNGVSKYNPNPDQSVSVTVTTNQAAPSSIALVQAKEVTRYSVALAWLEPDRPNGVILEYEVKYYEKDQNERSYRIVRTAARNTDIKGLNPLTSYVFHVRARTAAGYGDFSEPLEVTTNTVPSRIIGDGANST
T2 sequence (P54764 20-547): as above

ka (human EphA4): 410000 M⁻¹ s⁻¹ | kd (human EphA4): 0.00058 s⁻¹ | Kd (human EphA4): 1.4 nM | IC50 [1]: 3.5 nM
B1: 77 (antibody, V domains shown)
VH: QVQLVQSGSELKKPGASVKVSCKASGYTFTDYSMHWVRQAPGQGLEWMGWINTETGEPTYADDFKGRFVFSLDTSVSTAYLQISSLKAEDTAVYYCARIPLYYYGSRYWYFDVWGQGTTVTVSS
VL: DIQMTQSPSSLSASVGDRVTITCRASENIYRNLAWYQQKPGKAPKLLVYAATNLADGVPSRFSGSGSGTDYTLTISSLQPEDFATYYCQHFWGTPWTFGQGTKVEIK
modifications: synthetic humanized antibody heavy chain variable region sequence; synthetic humanized antibody light chain variable region sequence

ka (human EphA4): 340000 M⁻¹ s⁻¹ | kd (human EphA4): 0.00039 s⁻¹ | Kd (human EphA4): 1.1 nM | IC50 [1]: 2.8 nM
B2: 78 (antibody, V domains shown)
VH: B1 VH with E46K
VL: B1 VL
modifications: synthetic humanized antibody heavy chain variable region sequence; synthetic humanized antibody light chain variable region sequence

— US10428140B2, “Anti-EphA4 antibody” (EISAI R&D MANAGEMENT CO., LTD., priority 2015, dated 2019)
